Reference: IntAct's records for PubMed 17314099

B1: Serine-threonine kinase receptor-associated protein (Homo sapiens), Q9Y3F4 (parent)
chain: MAMRQTPLTCSGHTRPVVDLAFSGITPYGYFLISACKDGKPMLRQGDTGDWIGTFLGHKGAVWGATLNKDATKAATAAADFTAKVWDAVSGDELMTLAHKHIVKTVDFTQDSNYLLTGGQDKLLRIYDLNKPEAEPKEISGHTSGIKKALWCSEDKQILSADDKTVRLWDHATMTEVKSLNFNMSVSSMEYIPEGEILVITYGRSIAFHSAVSLDPIKSFEAPATINSASLHPEKEFLVAGGEDFKLYKYDYNSGEELESYKGHFGPIHCVRFSPDGELYASGSEDGTLRLWQTVVGKTYGLWKCVLPEEDSGELAKPKIGFPETTEEELEEIASENSDCIFPSAPDVKA

Tests used:
Conditions in all cases: with ndka_human NME1, P15531
ndka_human NME1, P15531, sequence (P15531 whole entry): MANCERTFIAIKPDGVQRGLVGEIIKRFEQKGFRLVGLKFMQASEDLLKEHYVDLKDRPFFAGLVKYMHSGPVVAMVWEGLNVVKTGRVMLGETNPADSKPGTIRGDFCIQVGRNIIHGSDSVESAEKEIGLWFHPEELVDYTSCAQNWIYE

ndka_human NME1, P15531 [1] = variants of: B1
ndka_human NME1, P15531 [2] = variants of: B1; remark: listed apart in the source
ndka_human NME1, P15531 [3] = variants of: B1; remark: listed apart in the source

MAMRQTPLTCSGHTRPVVDLAFSGITPYGYFLISACKDGKPMLRQGDTGDWIGTFLGHKGAVWGATLNKDATKAATAAADFTAKVWDAVSGDELMTLAHKHIVKTVDFTQDSNYLLTGGQDKLLRIYDLNKPEAEPKEISGHTSGIKKALWSSEDKQILSADDKTVRLWDHATMTEVKSLNFNMSVSSMEYIPEGEILVITYGRSIAFHSAVSLDPIKSFEAPATINSASLHPEKEFLVAGGEDFKLYKYDYNSGEELESYKGHFGPIHCVRFSPDGELYASGSEDGTLRLWQTVVGKTYGLWKCVLPEEDSGELAKPKIGFPETTEEELEEIASENSDCIFPSAPDVKA [C152S] was tested, and the “effect of a mutation on the interaction” value (ndka_human NME1, P15531 [1]) was “decreasing interaction” and the “effect of a mutation on the interaction” value (ndka_human NME1, P15531 [2]) was “disrupting interaction”.

With MAMRQTPLTCSGHTRPVVDLAFSGITPYGYFLISACKDGKPMLRQGDTGDWIGTFLGHKGAVWGATLNKDATKAATAAADFTAKVWDAVSGDELMTLAHKHIVKTVDFTQDSNYLLTGGQDKLLRIYDLNKPEAEPKEISGHTSGIKKALWSSEDKQILSADDKTVRLWDHATMTEVKSLNFNMSVSSMEYIPEGEILVITYGRSIAFHSAVSLDPIKSFEAPATINSASLHPEKEFLVAGGEDFKLYKYDYNSGEELESYKGHFGPIHSVRFSPDGELYASGSEDGTLRLWQTVVGKTYGLWKCVLPEEDSGELAKPKIGFPETTEEELEEIASENSDCIFPSAPDVKA [C152S;C270S] the “effect of a mutation on the interaction” value (ndka_human NME1, P15531 [1]) was “disrupting interaction” and the “effect of a mutation on the interaction” value (ndka_human NME1, P15531 [3]) was “decreasing interaction”.

For MAMRQTPLTCSGHTRPVVDLAFSGITPYGYFLISACKDGKPMLRQGDTGDWIGTFLGHKGAVWGATLNKDATKAATAAADFTAKVWDAVSGDELMTLAHKHIVKTVDFTQDSNYLLTGGQDKLLRIYDLNKPEAEPKEISGHTSGIKKALWCSEDKQILSADDKTVRLWDHATMTEVKSLNFNMSVSSMEYIPEGEILVITYGRSIAFHSAVSLDPIKSFEAPATINSASLHPEKEFLVAGGEDFKLYKYDYNSGEELESYKGHFGPIHSVRFSPDGELYASGSEDGTLRLWQTVVGKTYGLWKCVLPEEDSGELAKPKIGFPETTEEELEEIASENSDCIFPSAPDVKA [C270S], the “effect of a mutation on the interaction” value (ndka_human NME1, P15531 [1]) was “decreasing interaction” and the “effect of a mutation on the interaction” value (ndka_human NME1, P15531 [2]) was “disrupting interaction”.
